The results in this text go back to paper PMC12186490, “Environmental pH controls antimicrobial production by human probiotic Streptococcus salivarius” (Journal of Bacteriology, 2025).

Usually stoichiometry N stands for a count of units in the complex or per binding partner.

Experiment [1] concerns the target NRPS regulator NrpR (amino acids 1-285), recombinant, untagged (Streptococcus salivarius K12).
The target of experiment [2] is fluorescein-labeled synthetic NRPS-inducing peptide (NIP) (Streptococcus salivarius K12). Description: fluorescence polarisation; 1 nM fluorescein-labeled NIP titrated with purified NrpR; 20 mM potassium phosphate, 75 mM NaCl, 2% DMSO, 1 mM EDTA, 0.0005% Tween 20; binding buffer adjusted to near neutral pH (pH 6.5 to 7.5) or pH 5.0. A general note: Fluorescence polarisation rises when a labelled molecule tumbles more slowly, as on binding a larger partner.

Experiment [3] deals with NRPS regulator NrpR (amino acids 1-285), recombinant, untagged (Streptococcus salivarius K12). The experiment can be described thus: SEC; Superdex 200 10/300 GL; 20 mM Tris-HCl pH 8.5, 200 mM NaCl, 1 mM TCEP, 5% glycerol; 1 mg/mL NrpR, room temperature; mass standards. For orientation: Size exclusion chromatography separates by hydrodynamic size, large species first.

Where only a bound is given, the exact number is not on record here.

Consider “fluorescein-labeled synthetic NRPS-inducing peptide (NIP)”, for which the sarD transcript level (qRT-PCR) in the nip* mutant with 100 nM synthetic NIP at pH 5.5 or 6.0, against the unsupplemented mutant; no significant induction at pH 6.5-7.5 or pH 5.0 in experiment [1] was above 75 fold. The substance “NRPS regulator NrpR (amino acids 1-285), recombinant, untagged (receptor)” had a fold decrease in affinity against pH 5.5 in experiment [2] above 2 fold. For the same substance, the stoichiometry N in experiment [3] was found to be 2.
